These results are taken from patent publication US20150203577A1 (Chugai, published 2015).

Positions count from the first letter of the chain named.

B1: H237-MB647/MRAL-k0 (antibody, mouse IgG1, kappa)
heavy: QVQLQESGPGLVKPSETLSLTCAVSGHSISHDHAWSWVRQPPGEGLEWIGFISYSGITNYNPSLQGRVTISRDNSKNTLYLQMNSLRAEDTAVYYCARSLARTTAMDYWGEGTLVTVSSAKTTPPSVYPLAPGSAAQTNSMVTLGCLVKGYFPEPVTVTWNSGSLSSGVHTFPAVLQSDLYTLSSSVTVPSSTWPSETVTCNVAHPASSTKVDKKIVPRDCGCKPCICIPAEVEYVFIFPPKPKDVLTITLTPKVTCVVVDISKDDPEVQFSWFVDDVEVHTAQTQPREEQFNSTFRSVSELPIMHQDWLNGKEFKCRVNSAAFPAPIEKTISKTKGRPKAPQVYTIPPPKEQMAKDKVSLTCMITDFFPEDITVEWQWNGQPAENYKNTQPIMDTDGSYFVYSKLNVQKSNWEAGNTFTCSVLHEGLHNHHTEKSLSHSPGK
light: not shown
notes: mouse IgG1 CH variant; copies: 2 + 2
B2: H237-MB757/MRAL-k0 (antibody, mouse IgG1, kappa)
heavy: B1 heavy with I229E, A231N, Y235L, S294M, N320D
light: not shown
notes: as for B1
B3: H237-MB731/MRAL-k0 (antibody, mouse IgG1, kappa)
heavy: B1 heavy with I229E, V233E, Y235L
light: not shown
notes: as for B1
B4: H237-MB755/MRAL-k0 (antibody, mouse IgG1, kappa)
heavy: B1 heavy with I229E, A231N, Y235L, S294L, N320D
light: not shown
notes: as for B1
B5: H237-MB768/MRAL-k0 (antibody, mouse IgG1, kappa)
heavy: B1 heavy with I229E, A231N, Y235L, A326Q
light: not shown
notes: as for B1
B6: H237-MB718/MRAL-k0 (antibody, mouse IgG1, kappa)
heavy: B1 heavy with I229E, A231N, Y235T
light: not shown
notes: as for B1
B7: H237-MB753/MRAL-k0 (antibody, mouse IgG1, kappa)
heavy: B1 heavy with I229E, A231N, Y235L, S294M
light: not shown
notes: as for B1
B8: H237-MB762/MRAL-k0 (antibody, mouse IgG1, kappa)
heavy: B1 heavy with I229E, A231N, Y235L, F292E
light: not shown
notes: as for B1
B9: H237-MB715/MRAL-k0 (antibody, mouse IgG1, kappa)
heavy: B1 heavy with I229E, A231N, Y235V
light: not shown
notes: as for B1
B10: H237-MB693/MRAL-k0 (antibody, mouse IgG1, kappa)
heavy: B1 heavy with I229T, P230D, A231Y
light: not shown
notes: as for B1
B11: H237-MB732/MRAL-k0 (antibody, mouse IgG1, kappa)
heavy: B1 heavy with I229E, A231N, V233E, Y235L
light: not shown
notes: as for B1
B12: H237-MB758/MRAL-k0 (antibody, mouse IgG1, kappa)
heavy: B1 heavy with I229E, A231N, Y235L, S294M, K330R
light: not shown
notes: as for B1
B13: H237-MB765/MRAL-k0 (antibody, mouse IgG1, kappa)
heavy: B1 heavy with I229E, A231N, Y235L, N320L
light: not shown
notes: as for B1
B14: H237-MB702/MRAL-k0 (antibody, mouse IgG1, kappa)
heavy: B1 heavy with I229T, P230A, A231Y, Y235N
light: not shown
notes: as for B1
B15: H237-MB716/MRAL-k0 (antibody, mouse IgG1, kappa)
heavy: B1 heavy with I229E, A231N, Y235I
light: not shown
notes: as for B1
B16: H237-MB748/MRAL-k0 (antibody, mouse IgG1, kappa)
heavy: B1 heavy with I229E, A231N, Y235L, S263A
light: not shown
notes: as for B1
B17: H237-MB763/MRAL-k0 (antibody, mouse IgG1, kappa)
heavy: B1 heavy with I229E, A231N, Y235L, F292N
light: not shown
notes: as for B1
B18: H237-MB687/MRAL-k0 (antibody, mouse IgG1, kappa)
heavy: B1 heavy with I229E, A231P, Y235L
light: not shown
notes: as for B1
B19: H237-MB690/MRAL-k0 (antibody, mouse IgG1, kappa)
heavy: B1 heavy with I229T
light: not shown
notes: as for B1
B20: H237-MB764/MRAL-k0 (antibody, mouse IgG1, kappa)
heavy: B1 heavy with I229E, A231N, Y235L, F292T
light: not shown
notes: as for B1
B21: H237-MB769/MRAL-k0 (antibody, mouse IgG1, kappa)
heavy: B1 heavy with I229E, A231N, Y235L, P327D
light: not shown
notes: as for B1
B22: H237-MB703/MRAL-k0 (antibody, mouse IgG1, kappa)
heavy: B1 heavy with I229E, P230A, A231P, Y235N
light: not shown
notes: as for B1
B23: H237-MB692/MRAL-k0 (antibody, mouse IgG1, kappa)
heavy: B1 heavy with I229E, A231P
light: not shown
notes: as for B1
B24: H237-MB767/MRAL-k0 (antibody, mouse IgG1, kappa)
heavy: B1 heavy with I229E, A231N, Y235L, A326G
light: not shown
notes: as for B1
B25: H237-MB752/MRAL-k0 (antibody, mouse IgG1, kappa)
heavy: B1 heavy with I229E, A231N, Y235L, S294L
light: not shown
notes: as for B1

One assay deals with T1, mouse FcγRIII (mouse, UniProt P08508 31-215).
T1 construct: also called mFcγRIII; mFcgRIII
T1 chain: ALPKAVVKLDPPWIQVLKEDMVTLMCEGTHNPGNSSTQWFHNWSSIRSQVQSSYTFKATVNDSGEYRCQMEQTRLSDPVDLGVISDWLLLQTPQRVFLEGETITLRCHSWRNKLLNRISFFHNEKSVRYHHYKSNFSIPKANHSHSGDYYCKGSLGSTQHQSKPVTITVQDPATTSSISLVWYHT
The experiment in a line: SPR (Biacore), antibody captured on Protein L, mFcγR as analyte. How it is done: (§1) Each altered antibody was analyzed for its interaction with each Fcγ receptor prepared above using Biacore T100 (GE Healthcare Japan Corp.), Biacore T200 (GE Healthcare Japan Corp.), Biacore A100, or Biacore 4000. The running buffer used was HBS-EP+ (GE Healthcare Japan Corp.). The assay temperature was set to 25° C. The sensor chips used were chips prepared by immobilizing Protein L (ACTIGEN or BioVision) onto Series S Sensor Chip CM5 (GE Healthcare Japan Corp.) or Series S Sensor Chip CM4 (GE Healthcare Japan Corp.) by the amine coupling method.
(§2) In order to calculate the KD value of each altered antibody for FcγR, kinetic analysis was conducted according to the following method: first, the antibody of interest was captured onto any of these chips and allowed to interact with mFcγR diluted with a running buffer. For the obtained sensorgram, the assay results were globally fit into the 1:1 Langmuir binding model using Biacore Evaluation Software to calculate an association rate constant ka (L/mol/s) and a dissociation rate constant kd (1/s). From these values, the dissociation constant KD (mol/L) was calculated.
As to B1, the Kd was found to be 2800 nM and the “relative mFcγRIII-binding activity (mIgG1 = 1)” value was found to be 0.12 fold.
The matching figures for B2: 3230 nM and 0.11 fold.
The matching figures for B3: 15300 nM and 0.03 fold.
For B4, the Kd was determined as 2500 nM and the “relative mFcγRIII-binding activity (mIgG1 = 1)” value was determined as 0.15 fold.
Taken in the same sequence, the figures for B5 were 2030 nM and 0.2 fold.
The matching figures for B6: 5560 nM and 0.08 fold.
The matching figures for B7: 4260 nM and 0.09 fold.
As for B8, binding was characterised by a dissociation constant (Kd) of 3220 nM and the “relative mFcγRIII-binding activity (mIgG1 = 1)” value is 0.12 fold.
On to B9, for which the affinity, expressed as Kd, was 11900 nM and the “relative mFcγRIII-binding activity (mIgG1 = 1)” value is 0.04 fold.
The matching figures for B10: 5410 nM and 0.09 fold.
The matching figures for B11: 13700 nM and 0.03 fold.
The matching figures for B12: 2110 nM and 0.17 fold.
As to B13, the Kd was found to be 2560 nM and the “relative mFcγRIII-binding activity (mIgG1 = 1)” value was 0.15 fold.
Taken in the same sequence, the figures for B14 were 3520 nM and 0.14 fold.
For the molecule B15, binding was put at a Kd of 6150 nM and the “relative mFcγRIII-binding activity (mIgG1 = 1)” value is 0.08 fold.
Turning to B16, the Kd amounted to 2060 nM and the “relative mFcγRIII-binding activity (mIgG1 = 1)” value was determined as 0.18 fold.
Taken in the same sequence, the figures for B17 were 3970 nM and 0.1 fold.
Taken in the same sequence, the figures for B18 were 5320 nM and 0.1 fold.
The matching figures for B19: 2710 nM and 0.19 fold.
Take B20: binding was characterised by a dissociation constant (Kd) of 5150 nM and the “relative mFcγRIII-binding activity (mIgG1 = 1)” value was 0.08 fold.
Taken in the same sequence, the figures for B21 were 4380 nM and 0.09 fold.
With B22, the affinity, expressed as Kd, was 4900 nM and the “relative mFcγRIII-binding activity (mIgG1 = 1)” value turned out to be 0.1 fold.
Taken in the same sequence, the figures for B23 were 4440 nM and 0.12 fold.
Taken in the same sequence, the figures for B24 were 8790 nM and 0.04 fold.
Taken in the same sequence, the figures for B25 were 3280 nM and 0.11 fold.

The target in another assay is T2, mouse FcγRII (mouse, UniProt P08101 30-210).
T2 construct: also called mFcγRII; mFcgRII
T2 sequence: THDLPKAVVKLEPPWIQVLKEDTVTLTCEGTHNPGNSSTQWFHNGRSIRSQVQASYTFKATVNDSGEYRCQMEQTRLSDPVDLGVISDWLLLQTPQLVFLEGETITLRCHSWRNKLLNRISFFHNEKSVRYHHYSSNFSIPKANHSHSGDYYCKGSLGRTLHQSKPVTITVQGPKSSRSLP
Described as above. How it is done: as §1, §2
With B1, the Kd stood at 200 nM and the “relative mFcγRII-binding activity (mIgG1 = 1)” value came to 1.16 fold.
Taken in the same sequence, the figures for B2 were 27.8 nM and 6.63 fold.
The matching figures for B3: 238 nM and 1.13 fold.
Taken in the same sequence, the figures for B4 were 27.8 nM and 6.62 fold.
Consider B5, for which the Kd is 38.9 nM and the “relative mFcγRII-binding activity (mIgG1 = 1)” value turned out to be 6.34 fold.
Turning to B6, binding was characterised by a dissociation constant (Kd) of 247 nM and the “relative mFcγRII-binding activity (mIgG1 = 1)” value was found to be 1.08 fold.
The matching figures for B7: 36.8 nM and 5 fold.
Taken in the same sequence, the figures for B8 were 48.1 nM and 5.12 fold.
Regarding B9, binding was put at a Kd of 236 nM and the “relative mFcγRII-binding activity (mIgG1 = 1)” value is 1.14 fold.
On to B10, for which the Kd worked out at 267 nM and the “relative mFcγRII-binding activity (mIgG1 = 1)” value came out at 1.22 fold.
The matching figures for B11: 321 nM and 0.84 fold.
Taken in the same sequence, the figures for B12 were 21.5 nM and 8.57 fold.
Taken in the same sequence, the figures for B13 were 39.6 nM and 6.23 fold.
B14: the affinity, expressed as Kd, was 339 nM and the “relative mFcγRII-binding activity (mIgG1 = 1)” value turned out to be 0.96 fold.
The matching figures for B15: 52.8 nM and 5.07 fold.
The matching figures for B16: 17.9 nM and 10.3 fold.
The matching figures for B17: 61.9 nM and 3.98 fold.
Regarding B18, the affinity, expressed as Kd, was 345 nM and the “relative mFcγRII-binding activity (mIgG1 = 1)” value was 0.94 fold.
Consider B19, for which the Kd was 204 nM and the “relative mFcγRII-binding activity (mIgG1 = 1)” value was 1.6 fold.
In the case of B20, the Kd stood at 84.9 nM and the “relative mFcγRII-binding activity (mIgG1 = 1)” value came out at 2.9 fold.
In the case of B21, the Kd turned out to be 63.2 nM and the “relative mFcγRII-binding activity (mIgG1 = 1)” value stood at 3.9 fold.
The matching figures for B22: 345 nM and 0.94 fold.
Taken in the same sequence, the figures for B23 were 186 nM and 1.75 fold.
The matching figures for B24: 117 nM and 2.1 fold.
Take B25: the affinity, expressed as Kd, was 35.1 nM and the “relative mFcγRII-binding activity (mIgG1 = 1)” value is 5.24 fold.

The term Kd denotes the constant that tells how readily two partners part at equilibrium.
